Among the data in the RNAGym collection of RNA variant scans (doi:10.7554/elife.80360) are self-cleavage values, retold here.

B1: CPEB3 Ribozyme (parent)
chain: GGGGGCCACAGCAGAAGCGUUCACGUCGCGGCCCCUGUCAGAUUCUGGUGAAUCUGCGAAUUCUGCUGU

This series covers variants of B1. Description: self-cleavage, relative activity (ratio to wild type); higher = more cleavage; co-transcriptional.
As to GGGGGCCACAGCAGAAGUGUUCACGUCGCGGCCCCUGUCAGAUUCUGGGGAAUCUGCGAAUUCUGCUGU [C18U U49G], the self-cleavage is 0.894.

As for GGGGGCCACAGCAGAAGCAUUUACGUCGCGGCCCCUGUCAGAUUCUGGUGAAUCUGCGAAUUCUGCUGU [G19A C22U], the self-cleavage worked out at 0.196.

Consider GGGGGCCACAGCAGAAGCAUUGACGUCGCGGCCCCUGUCAGAUUCUGGUGAAUCUGCGAAUUCUGCUGU [G19A C22G], for which the self-cleavage stood at 0.148.

On to GGGGGCCACAGCAGAAGUGUUCACGUCGCGGCCCCUGUCAGAUUCUGGUGAAUCUGCGAAUUCGGCUGU [C18U U64G], for which the self-cleavage amounted to 0.43.

In the case of GGGGGCCACAGCAGAAGCAUUCACGUCGCGGCCCGUGUCAGAUUCUGGUGAAUCUGCGAAUUCUGCUGU [G19A C35G], the self-cleavage was 0.183.

For GGGGGCCACAGCAGAAGUGUUCACGUCGCGGCCCCUGUCAGAUUCUGGUGAAUCUGCGAAUUCUGCUGC [C18U U69C], the self-cleavage stood at 1.04.

For the variant GGGGGCCACAGCAGAAGUGUUCACGUCGCGGCCCCUGUCAGAUUCUGGUGAAUCUGCGAAUUCUGCUGG [C18U U69G], the self-cleavage is 1.

For the variant GGGGGCCACAGCAGAAGUGUUCACGUCGCGGCCCCUGUCAGAUUCUGGUGAAUCUGCGAAUUCUCCUGU [C18U G65C], the self-cleavage turned out to be 0.363.

With GGGGGCCACAGCAGAAGUGUUCACGUCGCGGCCCCUGUCAGAUUCUGGUGAAUCUGCGAAUUCUACUGU [C18U G65A], the self-cleavage was 0.332.

With GGGGGCCACAGCAGAAGCAUUCACGUCGCGGCCCCUGUCAGAUUCUGGUGAAUCUGCGACUUCUGCUGU [G19A A60C], the self-cleavage was determined as 0.0899.

Consider GGGGGCCACAGCAGAAGCAUUCACGUCGCGGCCCCUGUCAGAUUCUGGUGAAUCUGCGAUUUCUGCUGU [G19A A60U], for which the self-cleavage came out at 0.0747.

Take GGGGGCCACAGCAGAAGUGUUCACGUCGCGGCCCCAGUCAGAUUCUGGUGAAUCUGCGAAUUCUGCUGU [C18U U36A]: the self-cleavage came out at 0.109.

On to GGGGGCCACAGCAGAAGUGUUCACGUCGCGGCCCCCGUCAGAUUCUGGUGAAUCUGCGAAUUCUGCUGU [C18U U36C], for which the self-cleavage was found to be 0.562.

On to GGGGGCCACAGCAGAAGUGUUCACGUCGCGGCCCCUGUCAGAUUCUGGUGAAUCUACGAAUUCUGCUGU [C18U G56A], for which the self-cleavage is 0.706.

GGGGGCCACAGCAGAAGUGUUCACGUCGCGGCCCCUGUCAGAUCCUGGUGAAUCUGCGAAUUCUGCUGU [C18U U44C]: the self-cleavage amounted to 0.617.

Turning to GGGGGCCACAGCAGAAGUGUUCACGUCGCGGCCCCUGUCAGAUACUGGUGAAUCUGCGAAUUCUGCUGU [C18U U44A], the self-cleavage worked out at 0.727.

Consider GGGGGCCACAGCAGAAGUGUUCACGUCGCGGCCCCUGUCAGAUGCUGGUGAAUCUGCGAAUUCUGCUGU [C18U U44G], for which the self-cleavage came out at 0.726.

In the case of GGGGGCCACAGCAGAAGUGUUCACGUCGCGGCCCCUGCCAGAUUCUGGUGAAUCUGCGAAUUCUGCUGU [C18U U38C], the self-cleavage worked out at 0.694.

Turning to GGGGGCCACAGCAGAAGUGUUCACGUCGCGGCCCCUGACAGAUUCUGGUGAAUCUGCGAAUUCUGCUGU [C18U U38A], the self-cleavage turned out to be 0.671.

GGGGGCCACAGCAGAAGUGUUCACGUCGCGGCCCCUGGCAGAUUCUGGUGAAUCUGCGAAUUCUGCUGU [C18U U38G]: the self-cleavage is 0.116.

Turning to GGGGGCCACAGCAGAAGCAUUCACGUCGCGGCCCCUGUCAGAUUGUGGUGAAUCUGCGAAUUCUGCUGU [G19A C45G], the self-cleavage was found to be 0.194.

Regarding GGGGGCCACAGCAGAAGUGUUCACGUCGCGGCCCCUGUCAGAGUCUGGUGAAUCUGCGAAUUCUGCUGU [C18U U43G], the self-cleavage was determined as 0.357.

GGGGGCCACAGCAGAAGUGUUCACGUCGCGGCCCCUGUCAGACUCUGGUGAAUCUGCGAAUUCUGCUGU [C18U U43C]: the self-cleavage was 0.768.

In the case of GGGGGCCACAGCAGAAGCAUUCACGUCGCGGCCCCUGUCAGAUUCUGGUGAAUUUGCGAAUUCUGCUGU [G19A C54U], the self-cleavage worked out at 0.134.

For the variant GGGGGCCACAGCAGAAGCAUUCACGUCGCGGCCCCUGUCAGAUUCUGGUGAAUAUGCGAAUUCUGCUGU [G19A C54A], the self-cleavage was 0.163.

With GGGGGCCACAGCAGAAGUGUUCACGUCGCGGCCCCUGUCAGAUUCUGGUGAAUCUGCGAAUUCUGCUCU [C18U G68C], the self-cleavage turned out to be 0.924.

For the variant GGGGGCCACAGCAGAAGUGUUCACGUCGCGGCCCCUGUCAGAUUCUGGUGAAUCUGCGAAUUCUGCUUU [C18U G68U], the self-cleavage came to 0.943.

As to GGGGGCCACAGCAGAAGUGUUCACGUCGCGGCCCCUGUCAGAUUCUGGUGAAUCUGCGAAUUCUGCUAU [C18U G68A], the self-cleavage was 0.948.

With GGGGGCCACAGCAGAAGCAUUCACGUGGCGGCCCCUGUCAGAUUCUGGUGAAUCUGCGAAUUCUGCUGU [G19A C27G], the self-cleavage was determined as 0.656.

Consider GGGGGCCACAGCAGAAGCAUUCACGUUGCGGCCCCUGUCAGAUUCUGGUGAAUCUGCGAAUUCUGCUGU [G19A C27U], for which the self-cleavage stood at 0.768.

Consider GGGGGCCACAGCAGAAGCAUUCACGUAGCGGCCCCUGUCAGAUUCUGGUGAAUCUGCGAAUUCUGCUGU [G19A C27A], for which the self-cleavage stood at 0.143.

On to GGGGGCCACAGCAGAAGCAUUCACGUCGCGGCUCCUGUCAGAUUCUGGUGAAUCUGCGAAUUCUGCUGU [G19A C33U], for which the self-cleavage came out at 0.13.

Turning to GGGGGCCACAGCAGAAGCAUUCACGUCGCGGCACCUGUCAGAUUCUGGUGAAUCUGCGAAUUCUGCUGU [G19A C33A], the self-cleavage is 0.126.

On to GGGGGCCACAGCAGAAGUGUUCACGUCGCGGCCCCUGUCAGAUUCAGGUGAAUCUGCGAAUUCUGCUGU [C18U U46A], for which the self-cleavage is 0.964.

On to GGGGGCCACAGCAGAAGUGUUCACGUCGCGGCCCCUGUCAGAUUCCGGUGAAUCUGCGAAUUCUGCUGU [C18U U46C], for which the self-cleavage stood at 0.808.

On to GGGGGCCACAGCAGAAGUGUUCACGUCGCGGCCCCUGUCAGAUUCGGGUGAAUCUGCGAAUUCUGCUGU [C18U U46G], for which the self-cleavage was found to be 0.854.

For the variant GGGGGCCACAGCAGAAGCAUUCACGUCGCGGCCCCUGUCCGAUUCUGGUGAAUCUGCGAAUUCUGCUGU [G19A A40C], the self-cleavage stood at 0.123.

For the variant GGGGGCCACAGCAGAAGCAUUCACGUCGCGGCCCCUGUCUGAUUCUGGUGAAUCUGCGAAUUCUGCUGU [G19A A40U], the self-cleavage is 0.147.

Consider GGGGGCCACAGCAGAAGUGUUCACGGCGCGGCCCCUGUCAGAUUCUGGUGAAUCUGCGAAUUCUGCUGU [C18U U26G], for which the self-cleavage worked out at 0.697.
